Protein stability index data for 26 sequences are collected here from the supplement of paper PMC9732359.

± gives the uncertainty stated by the source.

A short description of this data set: protein stability index of a GFP-peptide fusion (yeast GPS) (PSI 1-4); higher = more stable; sorted into four equal gates, so the index is relative within each strain. In short, it runs like this: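 The protein stability index of a peptide was calculated by multiplying its read frequency in each gate by that gate's number and adding the products. The peptides were tiled 17-residue stretches of yeast proteins, fused downstream of GFP on a Cherry-expressing plasmid and carried in yeast as a pooled library. Mid-log cultures in leucine-free medium were sorted into four equal gates by GFP/Cherry ratio, and each gate's plasmids were PCR-amplified and Illumina-sequenced.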

On to PDENKTRVRLPSGAKKV [RPL2A], for which the protein stability index (doa10∆) is 3.12 ± 0.075, the protein stability index (pdr5∆) was 2.96 ± 0.079, the protein stability index (san1∆) came out at 3.1 ± 0.037 and the protein stability index (ubr1∆) was 3.08 ± 0.05.

On to SGTAATGAASNQSSFNF [YOR098C/NUP1], for which the protein stability index came out at 2.7 ± 0.072 (doa10∆), 3.01 ± 0.09 (pdr5∆), 2.68 ± 0.12 (san1∆) and 3.07 ± 0.053 (ubr1∆).

For the sequence IVNHEQDLPKINDKRAN [SRB4], the protein stability index reads like this: (doa10∆) 3.28 ± 0.19; (pdr5∆) 3.21 ± 0.11; (san1∆) 2.96 ± 0.098; (ubr1∆) 3.08 ± 0.08.

Take SNYSRTMTISHLLLGFQ [YJL039C/NUP192]: the protein stability index by setting is: (doa10∆) 1.82 ± 0.05; (pdr5∆) 1.69 ± 0.044; (san1∆) 1.59 ± 0.058; (ubr1∆) 2.1 ± 0.034.

For the sequence LTVDNLSIAIVGKDTPF [PRE5], the protein stability index is 2.9 ± 0.052 (doa10∆), 2.66 ± 0.05 (pdr5∆), 2.62 ± 0.05 (san1∆) and 3 ± 0.037 (ubr1∆).

Turning to LTDLDSPSEFVDVAIPC [RPS0A], the protein stability index is, setting by setting: (doa10∆) 2.77 ± 0.091; (pdr5∆) 2.46 ± 0.073; (san1∆) 2.31 ± 0.077; (ubr1∆) 2.56 ± 0.063.

On to IFHPMIHYSWSFILYYR [YML103C/NUP188], for which the protein stability index came to 1.74 ± 0.051 (doa10∆), 1.68 ± 0.032 (pdr5∆), 1.69 ± 0.063 (san1∆) and 1.98 ± 0.048 (ubr1∆).

With RQLAGAIGYEPLSLTHR [DIS3], the protein stability index amounted to 2.94 ± 0.057 (doa10∆), 2.87 ± 0.057 (pdr5∆), 2.86 ± 0.07 (san1∆) and 2.93 ± 0.041 (ubr1∆).

As to RFDAQTGSDREVQRILI [RPT3], the protein stability index was 3.09 ± 0.12 (doa10∆), 3.08 ± 0.14 (pdr5∆), 3.43 ± 0.1 (san1∆) and 3.4 ± 0.16 (ubr1∆).

SRSRSSIRSISPAGKYK [ESC2] displayed a protein stability index (doa10∆) of 2.84 ± 0.14, a protein stability index (pdr5∆) of 2.96 ± 0.099, a protein stability index (san1∆) of 3.17 ± 0.064 and a protein stability index (ubr1∆) of 3.14 ± 0.085.

The sequence SVTIISAGNDKMVKAWN [ASC1] returned a protein stability index (doa10∆) of 2.35 ± 0.22.

RNLDSATLKEIKSIIEQ [SMC3]: the protein stability index was 3.25 ± 0.078 (doa10∆), 3.51 ± 0.087 (pdr5∆), 3.2 ± 0.066 (san1∆) and 3.21 ± 0.068 (ubr1∆).

As to RAIPFRRFNSSIGRTAQ [RPL17A], the protein stability index (doa10∆) amounted to 2.91 ± 0.07, the protein stability index (pdr5∆) was determined as 2.87 ± 0.08, the protein stability index (san1∆) was determined as 2.89 ± 0.097 and the protein stability index (ubr1∆) was 2.68 ± 0.06.

Take HRLLQRALFRQLKRWYW [RMP1]: the protein stability index was 2.29 ± 0.18 (doa10∆), 1.2 ± 0.12 (pdr5∆), 1.22 ± 0.17 (san1∆) and 1.35 ± 0.11 (ubr1∆).

With KNTIDFERFPSPSTSAN [RPN4], the protein stability index was 2.87 ± 0.09 (doa10∆), 2.95 ± 0.064 (pdr5∆), 2.72 ± 0.082 (san1∆) and 3.03 ± 0.056 (ubr1∆).

As for LEQDLHFENAKVIDLDT [YIL149C/MLP2], the protein stability index was 3.08 ± 0.18 (doa10∆), 3.32 ± 0.16 (pdr5∆), 2.65 ± 0.23 (san1∆) and 3.13 ± 0.11 (ubr1∆).

Take HHNDISNDSQSHFDYNT [YCG1]: the protein stability index runs as follows: (doa10∆) 1.89 ± 0.18; (pdr5∆) 2.16 ± 0.17; (san1∆) 2.49 ± 0.14; (ubr1∆) 2.39 ± 0.16.

Regarding SPYNADFDGDEMNLHVP [RPO21], the protein stability index (doa10∆) was determined as 3.15 ± 0.076, the protein stability index (pdr5∆) stood at 3.27 ± 0.068, the protein stability index (san1∆) came out at 3.15 ± 0.078 and the protein stability index (ubr1∆) is 3.1 ± 0.061.

As for IRDPLTQTGLLQDLEEA [RPC82], the protein stability index turned out to be 3.31 ± 0.23 (doa10∆), 3.2 ± 0.17 (pdr5∆) and 3.15 ± 0.28 (san1∆).

Regarding LQPFWFRVNNASINTSA [ECM29], the protein stability index was 1.66 ± 0.1 (doa10∆), 1.49 ± 0.068 (pdr5∆), 1.26 ± 0.16 (san1∆) and 1.49 ± 0.071 (ubr1∆).

Turning to YGLGLIYAGFGRDTTDY [RPN2], the protein stability index amounted to 3.37 ± 0.12 (doa10∆), 3.03 ± 0.1 (pdr5∆), 2.95 ± 0.084 (san1∆) and 3.28 ± 0.088 (ubr1∆).

Consider NVNNRFDNFLTEEELQA [BRN1], for which the protein stability index was found to be 3.07 ± 0.078 (doa10∆), 2.63 ± 0.079 (pdr5∆), 3 ± 0.056 (san1∆) and 2.63 ± 0.054 (ubr1∆).

In turn, LKNKKEIYRISFQLSKI [RPS9A] came in with a protein stability index (doa10∆) of 3.03 ± 0.12, a protein stability index (pdr5∆) of 3.09 ± 0.084, a protein stability index (san1∆) of 3.1 ± 0.089 and a protein stability index (ubr1∆) of 3.2 ± 0.058.

On to KKFGGKGARSRFQKSYR [RPS16A], for which the protein stability index came to 3.29 ± 0.12 (doa10∆), 3.27 ± 0.097 (pdr5∆), 3.27 ± 0.072 (san1∆) and 3.32 ± 0.079 (ubr1∆).

In the case of DKKYKGLTTVWLLSALG [REC8], the protein stability index by setting is: (doa10∆) 2.24 ± 0.054; (pdr5∆) 2.38 ± 0.063; (san1∆) 2.04 ± 0.084; (ubr1∆) 2.29 ± 0.039.

RLGSEADAKAFLDSMAQ [FAS2]: the protein stability index is, setting by setting: (doa10∆) 3.38 ± 0.091; (pdr5∆) 3.44 ± 0.081; (san1∆) 3.21 ± 0.062; (ubr1∆) 3.33 ± 0.11.
